Test results taken from patent publication US20250076311A1 (Chugai, published 2025).

Tests used:
[1] = molecular target: T1, cynomolgus monkey FcγRIIIaS extracellular domain with C-terminal His-tag (cynomolgus monkey, UniProt Q8SPW2 21-206 at identity 1.00)); assay: SPR, KD(SG1)/KD(variant)
T1 construct: also called cyno FcgRIIIaS; cynoFcγRIIIaS
T1 chain: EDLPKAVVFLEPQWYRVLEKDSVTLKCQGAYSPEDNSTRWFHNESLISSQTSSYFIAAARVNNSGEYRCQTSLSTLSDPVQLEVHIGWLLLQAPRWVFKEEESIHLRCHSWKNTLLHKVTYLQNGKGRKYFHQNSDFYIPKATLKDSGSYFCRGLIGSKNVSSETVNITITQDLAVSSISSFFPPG
Experimental: (§1) The kinetic analysis of interactions between these antibodies and FcγR was carried out using BIACORE® T200 or BIACORE® 4000 (GE Healthcare). HBS-EP+ (GE Healthcare) was used as the running buffer, and the measurement temperature was set to 25° C. […] After the measurement, the antibody captured on the chip was washed off by allowing reaction with 10 mM glycine-HCl, pH1.5 and 25 mM NaOH so that the chip was regenerated and used repeatedly. The sensorgrams obtained as measurement results were analyzed by the 1:1 Langmuir binding model using the BIACORE® Evaluation Software to calculate the binding rate constant ka (L/mol/s) and dissociation rate constant kd (1/s), and the dissociation constant KD (mol/L) was calculated from these values. […] Regarding such interactions, KD values were calculated using the following 1:1 binding model described in BIACORE® T100 Software Handbook BR1006-48 Edition AE.

[2] = molecular target: T1, cynomolgus monkey FcγRIIIaS …; assay: SPR, antibody captured, FcγR analyte
Experimental: as §1

[3] = molecular target: T2, cynomolgus monkey FcγRIIa1 extracellular domain with C-terminal His-tag (cynomolgus monkey); assay: SPR (Biacore), antibody captured, FcgR as analyte
T2 construct: also called cyno FcgRIIa1; cynoFcγRIIa1
T2 chain: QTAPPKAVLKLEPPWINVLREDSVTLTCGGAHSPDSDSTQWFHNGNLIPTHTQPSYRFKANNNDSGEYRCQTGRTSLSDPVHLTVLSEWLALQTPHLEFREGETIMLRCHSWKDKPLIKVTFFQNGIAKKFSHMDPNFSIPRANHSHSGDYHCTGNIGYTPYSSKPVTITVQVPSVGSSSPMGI

[4] = molecular target: T3, human FcγRIIIaV extracellular domain with C-terminal His-tag (human, UniProt P08637 17-208); assay: SPR (Biacore), antibody captured, FcgR as analyte
T3 construct: also called human FcgRIIIaV

[5] = molecular target: T4, cynomolgus monkey FcγRIIa1 extracellular domain, His-tagged (cynomolgus monkey); assay: SPR Biacore, antibody captured, FcgR analyte
T4 construct: also called cyno FcγRIIa1; cynoFcgRIIa1; not shown: C-terminal His-tag
T4 chain: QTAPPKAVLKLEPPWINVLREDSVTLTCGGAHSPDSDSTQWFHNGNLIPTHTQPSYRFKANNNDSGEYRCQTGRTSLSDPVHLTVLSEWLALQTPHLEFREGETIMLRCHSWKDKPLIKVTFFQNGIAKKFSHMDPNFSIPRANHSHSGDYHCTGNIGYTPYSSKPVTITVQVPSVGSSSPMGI

[6] = molecular target: T5, human FcγRIIb extracellular domain, His-tagged (human, UniProt P31994 43-217); assay: SPR Biacore, antibody captured, FcgR analyte
T5 construct: also called FcgRIIb (human); not shown: C-terminal His-tag
T5 sequence: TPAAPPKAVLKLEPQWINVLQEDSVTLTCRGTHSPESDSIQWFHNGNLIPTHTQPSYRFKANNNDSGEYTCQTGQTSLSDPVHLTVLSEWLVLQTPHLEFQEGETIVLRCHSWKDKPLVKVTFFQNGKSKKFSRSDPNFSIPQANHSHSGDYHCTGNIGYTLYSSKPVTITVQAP

[7] = molecular target: T6, cynomolgus monkey FcγRIIa3 extracellular domain, His-tagged (cynomolgus monkey); assay: SPR Biacore, KD(SG1)/KD(variant)
T6 construct: also called cyno FcγRIIa3; cynoFcgRIIa3; not shown: C-terminal His-tag
T6 chain: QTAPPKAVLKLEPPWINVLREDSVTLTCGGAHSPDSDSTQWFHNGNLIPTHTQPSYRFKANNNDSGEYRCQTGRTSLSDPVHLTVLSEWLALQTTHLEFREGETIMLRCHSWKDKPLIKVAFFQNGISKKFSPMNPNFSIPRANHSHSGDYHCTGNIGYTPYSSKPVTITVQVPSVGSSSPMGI
Experimental: as §1

[8] = molecular target: T5, human FcγRIIb extracellular domain, …; assay: SPR Biacore, KD(SG1)/KD(variant)
Experimental: as §1

T3 sequence (P08637 17-208 F176V): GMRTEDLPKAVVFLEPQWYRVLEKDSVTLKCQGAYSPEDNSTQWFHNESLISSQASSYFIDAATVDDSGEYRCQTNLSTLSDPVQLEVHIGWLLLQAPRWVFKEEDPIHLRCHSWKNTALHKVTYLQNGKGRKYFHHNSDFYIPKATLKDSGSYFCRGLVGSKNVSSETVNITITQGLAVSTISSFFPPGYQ

B1: MS1032LO06-MY335 (antibody, human IgG1, kappa)
heavy: QVTLKESGPVLVKPTETLTLTCTVSGIDLSHDDISWVRQAPGKGLEWVGIISYAGSTYYASWAKGRLTISKDTSKNQVVLTMTNMDPVDTATYYCARGVPAYSHGGDLWGQGTLVTVSSASTKGPSVFPLAPSSKSTSGGTAALGCLVKDYFPEPVTVSWNSGALTSGVHTFPAVLQSSGLYSLSSVVTVPSSSLGTQTYICNVNHKPSNTKVDKKVEPKSCDKTHTCPPCPAPELLTGPSVFLFPPKPKDTLMISRTPEVTCVVVDVSDEDPEVKFNWYVDGVEVHNAKTKPREEQYNSTYRVVSVLTVLHRDWLNGKEYKCKVSNKALPKPIEKTISKAKGQPREPQVYTLPPSREEMTKNQVSLTCLVKGFYPSDIAVEWESNGQPENNYKTTPPVLDSDGSFFLYSKLTVKKSRWQQGNVFSCSVMHEALHNHYTQKSLSLSP
light: DIVMTQSPATLSLSPGERATLSCTSSQSVYHANWLSWFQQKPGQPPKLLIYWASTLAYGVPSRFSGSGSGTDFTLTISSLQPEDAATYYCAGGYGGGRYAFGQGTKVEIKRTVAAPSVFIFPPSDEQLKSGTASVVCLLNNFYPREAKVQWKVDNALQSGNSQESVTEQDSKDSTYSLSSTLTLSKADYEKHKVYACEVTHQGLSSPVTKSFNRGEC
notes: also called M103205H795-MY335; copies: 2 + 2
- KD fold (SG1 = 1) [1]: 0.24 fold
- Kd [2]: 1500 nM

B2: M103205H795-MY536 / M103202L889-SK1 (antibody, human IgG1, kappa, name in EU numbering)
heavy: QVTLKESGPVLVKPTETLTLTCTVSGIDLSHDDISWVRQAPGKGLEWVGIISYAGSTYYASWAKGRLTISKDTSKNQVVLTMTNMDPVDTATYYCARGVPAYSHGGDLWGQGTLVTVSSASTKGPSVFPLAPSSKSTSGGTAALGCLVKDYFPEPVTVSWNSGALTSGVHTFPAVLQSSGLYSLSSVVTVPSSSLGTQTYICNVNHKPSNTKVDKKVEPKSCDKTHTCPPCPGPEWLTGPVVFLFPPKPKDTLMISRTPEVTCVVVDVSDEDPEVKFNWYVDGVEVHNAKTKPREEQYNSTYRVVSVLTVLHQDWLNGKEYKCKVSNKALPKPIEKTISKAKGQPREPQVYTLPPSREEMTKNQVSLTCLVKGFYPSDIAVEWESNGQPENNYKTTPPVLDSDGSFFLYSKLTVDKSRWQQGNVFSCSVMHEALHNHYTQKSLSLSP
light: DIVMTQSPATLSLSPGERATLSCTSSQSVYHANWLSWFQQKPGQPPKLLIYWASTLAYGVPSRFSGSGSGTDFTLTISSLQPEDAATYYCAGGYGGGRYAFGQGTKVEIKRTVAAPSVFIFPPSDEQLKSGTASVVCLLNNFYPREAKVQWKVDNALQSGNSQESVTEQDSKDSTYSLSSTLTLSKADYEKHKVYACEVTHQGLSSPVTKSFNRGEC
- Kd [3]: 1200 nM
- Kd [4]: 2700 nM

B3: M103205H795-MY042/M103202L889-SK1 (antibody, human IgG1, kappa, name in EU numbering)
heavy: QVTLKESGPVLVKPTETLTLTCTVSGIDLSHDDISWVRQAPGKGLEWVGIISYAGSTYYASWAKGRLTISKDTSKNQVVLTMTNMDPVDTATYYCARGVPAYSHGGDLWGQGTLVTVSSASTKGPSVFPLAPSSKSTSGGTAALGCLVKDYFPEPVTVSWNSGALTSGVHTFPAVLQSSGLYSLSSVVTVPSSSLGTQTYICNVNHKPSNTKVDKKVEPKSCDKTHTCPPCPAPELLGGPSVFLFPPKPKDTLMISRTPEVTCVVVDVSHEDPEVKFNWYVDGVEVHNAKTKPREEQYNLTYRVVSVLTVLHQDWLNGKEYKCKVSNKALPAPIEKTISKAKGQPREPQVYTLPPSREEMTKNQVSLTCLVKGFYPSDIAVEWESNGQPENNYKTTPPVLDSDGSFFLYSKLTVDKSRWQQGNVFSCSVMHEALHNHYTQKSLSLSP
light: DIVMTQSPATLSLSPGERATLSCTSSQSVYHANWLSWFQQKPGQPPKLLIYWASTLAYGVPSRFSGSGSGTDFTLTISSLQPEDAATYYCAGGYGGGRYAFGQGTKVEIKRTVAAPSVFIFPPSDEQLKSGTASVVCLLNNFYPREAKVQWKVDNALQSGNSQESVTEQDSKDSTYSLSSTLTLSKADYEKHKVYACEVTHQGLSSPVTKSFNRGEC
notes: Substitution introduced into M103205H795-SG1; EU numbering
- Kd [5]: 510 nM

B4: MS1032LO06-PK2 (antibody, human IgG1, kappa)
heavy: QVTLKESGPVLVKPTETLTLTCTVSGIDLSHDDISWVRQAPGKGLEWVGIISYAGSTYYASWAKGRLTISKDTSKNQVVLTMTNMDPVDTATYYCARGVPAYSHGGDLWGQGTLVTVSSASTKGPSVFPLAPSSKSTSGGTAALGCLVKDYFPEPVTVSWNSGALTSGVHTFPAVLQSSGLYSLSSVVTVPSSSLGTQTYICNVNHKPSNTKVDKKVEPKSCDKTHTCPPCPAPELLNGPSVFLFPPKPKDTLMISRTPEVTCVVVDVSEEDPEVKFNWYVDGVEVHNAKTKPREEQYNSTYRVVSVLTVLHQDWLNGKEYKCKVSNKALPKPIEKTISKAKGQPREPQVYTLPPSREEMTKNQVSLTCLVKGFYPSDIAVEWESNGQPENNYKTTPMVLDRDGSFFLYSKLTVKKSRWQQGNVFSCSVMHEALHNHYTQKSLSLSP
light: DIVMTQSPATLSLSPGERATLSCTSSQSVYHANWLSWFQQKPGQPPKLLIYWASTLAYGVPSRFSGSGSGTDFTLTISSLQPEDAATYYCAGGYGGGRYAFGQGTKVEIKRTVAAPSVFIFPPSDEQLKSGTASVVCLLNNFYPREAKVQWKVDNALQSGNSQESVTEQDSKDSTYSLSSTLTLSKADYEKHKVYACEVTHQGLSSPVTKSFNRGEC
notes: also called M103205H795-PK2; copies: 2 + 2
- KD fold (SG1 = 1) [1]: 0.09 fold
- Kd [2]: 3900 nM

B5: MS1032LO06-MY344 (antibody, human IgG1, kappa)
heavy: QVTLKESGPVLVKPTETLTLTCTVSGIDLSHDDISWVRQAPGKGLEWVGIISYAGSTYYASWAKGRLTISKDTSKNQVVLTMTNMDPVDTATYYCARGVPAYSHGGDLWGQGTLVTVSSASTKGPSVFPLAPSSKSTSGGTAALGCLVKDYFPEPVTVSWNSGALTSGVHTFPAVLQSSGLYSLSSVVTVPSSSLGTQTYICNVNHKPSNTKVDKKVEPKSCDKTHTCPPCPAPELLNGPSVFLFPPKPKDTLMISRTPEVTCVVVDVSDEDPEVKFNWYVDGVEVHNAKTKPREELYNSTYRVVSVLTVLHRDWLNGKEYKCKVSNKALPKPIEKTISKAKGQPREPQVYTLPPSREEMTKNQVSLTCLVKGFYPSDIAVEWESNGQPENNYKTTPPVLDSDGSFFLYSKLTVKKSRWQQGNVFSCSVMHEALHNHYTQKSLSLSP
light: DIVMTQSPATLSLSPGERATLSCTSSQSVYHANWLSWFQQKPGQPPKLLIYWASTLAYGVPSRFSGSGSGTDFTLTISSLQPEDAATYYCAGGYGGGRYAFGQGTKVEIKRTVAAPSVFIFPPSDEQLKSGTASVVCLLNNFYPREAKVQWKVDNALQSGNSQESVTEQDSKDSTYSLSSTLTLSKADYEKHKVYACEVTHQGLSSPVTKSFNRGEC
notes: also called M103205H795-MY344; copies: 2 + 2
- KD fold (SG1 = 1) [1]: 0.07 fold
- Kd [2]: 4900 nM

B6: M103205H795-MY196/M103202L889-SK1 (antibody, human IgG1, kappa, name in EU numbering)
heavy: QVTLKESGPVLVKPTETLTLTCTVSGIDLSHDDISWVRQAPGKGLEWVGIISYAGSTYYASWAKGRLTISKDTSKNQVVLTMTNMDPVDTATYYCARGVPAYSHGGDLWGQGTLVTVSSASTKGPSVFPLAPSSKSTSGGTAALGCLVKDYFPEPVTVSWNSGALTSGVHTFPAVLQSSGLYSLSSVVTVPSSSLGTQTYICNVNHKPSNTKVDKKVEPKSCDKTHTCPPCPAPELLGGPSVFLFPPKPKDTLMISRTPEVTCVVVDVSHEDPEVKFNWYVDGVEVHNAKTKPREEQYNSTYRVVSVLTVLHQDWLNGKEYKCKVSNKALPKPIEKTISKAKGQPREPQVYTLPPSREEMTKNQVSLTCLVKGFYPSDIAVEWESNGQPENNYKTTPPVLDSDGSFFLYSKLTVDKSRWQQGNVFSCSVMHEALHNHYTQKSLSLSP
light: DIVMTQSPATLSLSPGERATLSCTSSQSVYHANWLSWFQQKPGQPPKLLIYWASTLAYGVPSRFSGSGSGTDFTLTISSLQPEDAATYYCAGGYGGGRYAFGQGTKVEIKRTVAAPSVFIFPPSDEQLKSGTASVVCLLNNFYPREAKVQWKVDNALQSGNSQESVTEQDSKDSTYSLSSTLTLSKADYEKHKVYACEVTHQGLSSPVTKSFNRGEC
notes: as for B3
- Kd [6]: 3200 nM

B7: M103205H795-MY535 / M103202L889-SK1 (antibody, human IgG1, kappa, name in EU numbering)
heavy: QVTLKESGPVLVKPTETLTLTCTVSGIDLSHDDISWVRQAPGKGLEWVGIISYAGSTYYASWAKGRLTISKDTSKNQVVLTMTNMDPVDTATYYCARGVPAYSHGGDLWGQGTLVTVSSASTKGPSVFPLAPSSKSTSGGTAALGCLVKDYFPEPVTVSWNSGALTSGVHTFPAVLQSSGLYSLSSVVTVPSSSLGTQTYICNVNHKPSNTKVDKKVEPKSCDKTHTCPPCPGPEWLTGPSVFLFPPKPKDTLMISRTPEVTCVVVDVSDEDPEVKFNWYVDGVEVHNAKTKPREEQYNSTYRVVSVLTVLHQDWLNGKEYKCKVSNKALPKPIEKTISKAKGQPREPQVYTLPPSREEMTKNQVSLTCLVKGFYPSDIAVEWESNGQPENNYKTTPPVLDSDGSFFLYSKLTVDKSRWQQGNVFSCSVMHEALHNHYTQKSLSLSP
light: DIVMTQSPATLSLSPGERATLSCTSSQSVYHANWLSWFQQKPGQPPKLLIYWASTLAYGVPSRFSGSGSGTDFTLTISSLQPEDAATYYCAGGYGGGRYAFGQGTKVEIKRTVAAPSVFIFPPSDEQLKSGTASVVCLLNNFYPREAKVQWKVDNALQSGNSQESVTEQDSKDSTYSLSSTLTLSKADYEKHKVYACEVTHQGLSSPVTKSFNRGEC
- Kd [3]: 1500 nM
- Kd [4]: 5200 nM

B8: M103205H795-MY071/M103202L889-SK1 (antibody, human IgG1, kappa, name in EU numbering)
heavy: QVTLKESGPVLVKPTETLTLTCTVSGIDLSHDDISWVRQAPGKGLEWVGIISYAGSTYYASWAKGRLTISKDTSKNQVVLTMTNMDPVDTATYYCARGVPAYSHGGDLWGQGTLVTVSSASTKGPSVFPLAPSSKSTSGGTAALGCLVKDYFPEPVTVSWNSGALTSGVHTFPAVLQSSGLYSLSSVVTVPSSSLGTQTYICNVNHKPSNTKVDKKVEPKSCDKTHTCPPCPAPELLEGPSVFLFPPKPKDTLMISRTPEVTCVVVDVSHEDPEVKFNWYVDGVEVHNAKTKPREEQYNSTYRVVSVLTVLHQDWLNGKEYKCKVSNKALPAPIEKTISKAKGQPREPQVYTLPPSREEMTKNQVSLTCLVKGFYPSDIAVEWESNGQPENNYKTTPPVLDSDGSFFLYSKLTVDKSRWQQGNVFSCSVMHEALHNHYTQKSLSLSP
light: DIVMTQSPATLSLSPGERATLSCTSSQSVYHANWLSWFQQKPGQPPKLLIYWASTLAYGVPSRFSGSGSGTDFTLTISSLQPEDAATYYCAGGYGGGRYAFGQGTKVEIKRTVAAPSVFIFPPSDEQLKSGTASVVCLLNNFYPREAKVQWKVDNALQSGNSQESVTEQDSKDSTYSLSSTLTLSKADYEKHKVYACEVTHQGLSSPVTKSFNRGEC
notes: as for B3
- KD fold (SG1 = 1) [7]: 1.8 fold
- KD fold (SG1 = 1) [8]: 1.5 fold
- Kd [6]: 3100 nM
